This is an account of results in paper PMC8301893, “Identification of HSP47 Binding Site on Native Collagen and Its Implications for the Development of HSP47 Inhibitors” (Biomolecules, 2021).

Test [1] addresses Collagen from calf skin (Sigma-Aldrich, Cat No: C9791) (calf) (UniProt P02453).
The target in test [2] is Integrin peptide 1 (GFOGER flanked by [GPP]5 at both ends). Put plainly: ELISA; solid-phase binding assay (SPBA): peptides coated at 10 µg/mL overnight at 4 °C on Immulon 2HB 96-well plates, blocked with TBS containing 5% BSA; 1 µg/mL recombinant HSP47 for 1 h at room temperature; HRP-conjugated anti-His antibody, TMB, A450; means of three independent experiments.

UniProt P02453, sequence (P02453 162-1217, chain 1 of 2): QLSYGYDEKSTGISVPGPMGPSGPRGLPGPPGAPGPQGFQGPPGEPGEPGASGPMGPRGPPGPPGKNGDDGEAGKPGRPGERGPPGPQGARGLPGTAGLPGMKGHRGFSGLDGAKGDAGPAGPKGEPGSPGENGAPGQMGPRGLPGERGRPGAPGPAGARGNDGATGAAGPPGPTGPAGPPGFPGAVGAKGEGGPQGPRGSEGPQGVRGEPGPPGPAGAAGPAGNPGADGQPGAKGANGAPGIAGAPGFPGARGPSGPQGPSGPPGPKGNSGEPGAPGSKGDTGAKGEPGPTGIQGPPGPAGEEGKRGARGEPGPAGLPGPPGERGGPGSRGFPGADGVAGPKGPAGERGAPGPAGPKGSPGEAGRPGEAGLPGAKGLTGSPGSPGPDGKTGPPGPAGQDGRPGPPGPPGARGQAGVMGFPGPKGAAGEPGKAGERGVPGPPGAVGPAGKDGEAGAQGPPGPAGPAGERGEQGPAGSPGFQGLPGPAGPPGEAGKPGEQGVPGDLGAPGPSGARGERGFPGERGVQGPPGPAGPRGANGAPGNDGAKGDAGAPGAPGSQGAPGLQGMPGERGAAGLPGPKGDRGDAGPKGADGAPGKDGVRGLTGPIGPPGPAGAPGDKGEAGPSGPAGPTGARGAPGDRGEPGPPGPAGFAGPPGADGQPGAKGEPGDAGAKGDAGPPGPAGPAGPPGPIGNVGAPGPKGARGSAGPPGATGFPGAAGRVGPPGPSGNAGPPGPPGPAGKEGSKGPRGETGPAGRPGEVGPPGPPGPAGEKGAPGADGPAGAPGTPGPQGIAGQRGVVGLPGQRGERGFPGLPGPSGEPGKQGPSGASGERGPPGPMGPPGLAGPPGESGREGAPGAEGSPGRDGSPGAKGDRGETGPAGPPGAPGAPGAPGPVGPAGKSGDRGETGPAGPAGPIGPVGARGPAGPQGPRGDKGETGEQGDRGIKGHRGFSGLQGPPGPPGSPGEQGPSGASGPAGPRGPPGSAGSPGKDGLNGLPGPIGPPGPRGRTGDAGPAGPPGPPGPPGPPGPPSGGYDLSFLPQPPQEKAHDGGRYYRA
UniProt P02453, sequence (P02465 80-1117, chain 2 of 2, further chain): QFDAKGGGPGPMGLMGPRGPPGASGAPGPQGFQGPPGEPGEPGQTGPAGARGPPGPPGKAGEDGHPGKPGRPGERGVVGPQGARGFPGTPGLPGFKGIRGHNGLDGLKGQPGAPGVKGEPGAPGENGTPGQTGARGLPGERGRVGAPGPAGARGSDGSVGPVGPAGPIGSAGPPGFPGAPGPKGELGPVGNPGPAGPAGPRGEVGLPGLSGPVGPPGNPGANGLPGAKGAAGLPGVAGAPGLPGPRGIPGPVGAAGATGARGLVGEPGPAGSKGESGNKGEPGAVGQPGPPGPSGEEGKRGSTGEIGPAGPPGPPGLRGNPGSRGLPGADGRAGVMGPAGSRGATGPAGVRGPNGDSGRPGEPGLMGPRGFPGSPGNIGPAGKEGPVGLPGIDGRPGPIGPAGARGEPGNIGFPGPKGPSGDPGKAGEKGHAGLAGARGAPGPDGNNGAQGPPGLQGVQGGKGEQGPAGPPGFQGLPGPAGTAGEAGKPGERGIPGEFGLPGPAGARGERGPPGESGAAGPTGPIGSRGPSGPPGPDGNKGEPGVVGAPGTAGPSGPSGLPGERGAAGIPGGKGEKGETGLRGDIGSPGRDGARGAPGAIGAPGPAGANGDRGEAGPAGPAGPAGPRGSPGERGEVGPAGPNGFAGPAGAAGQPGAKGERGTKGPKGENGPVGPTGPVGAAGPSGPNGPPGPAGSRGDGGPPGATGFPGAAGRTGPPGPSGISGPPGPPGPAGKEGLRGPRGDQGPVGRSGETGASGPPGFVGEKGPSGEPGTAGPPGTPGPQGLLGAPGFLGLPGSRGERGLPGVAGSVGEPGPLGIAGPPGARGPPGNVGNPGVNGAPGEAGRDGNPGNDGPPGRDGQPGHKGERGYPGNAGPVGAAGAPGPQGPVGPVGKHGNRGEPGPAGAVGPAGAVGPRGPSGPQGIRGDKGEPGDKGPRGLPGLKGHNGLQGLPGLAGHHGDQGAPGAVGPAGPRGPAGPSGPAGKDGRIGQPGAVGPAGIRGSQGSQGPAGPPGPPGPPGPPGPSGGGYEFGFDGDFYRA

B1: human HSP47 (heat shock protein 47), amino acids 19-418, C-terminal His-tag (natural protein)
chain: AEVKKPAAAAAPGTAEKLSPKAATLAERSAGLAFSLYQAMAKDQAVENILVSPVVVASSLGLVSLGGKATTASQAKAVLSAEQLRDEEVHAGLGELLRSLSNSTARNVTWKLGSRLYGPSSVSFADDFVRSSKQHYNCEHSKINFRDKRSALQSINEWAAQTTDGKLPEVTKDVERTDGALLVNAMFFKPHWDEKFHHKMVDNRGFMVTRSYTVGVMMMHRTGLYNYYDDEKEKLQIVEMPLAHKLSSLIILMPHHVEPLERLEKLLTKEQLKIWMGKMQKKAVAISLPKGVVEVTHDLQKHLAGLGLTEAIDKNKADLSRMSGKKDLYLASVFHATAFELDTDGNPFDQDIYGREELRSPKLFYADHPFIFLVRDTQSGSLLFIGRLVRPKGDKMRDEL
For the molecule B1, in test [1], the IC50 of the small molecule Com II against HSP47 (2.6 μM) in the turbidity assay of collagen fibril formation is 50 to 100 µM, the IC50 of the small molecule Hs1 against HSP47 (2.6 μM) in the turbidity assay of collagen fibril formation came to 97 µM and the IC50 of the small molecule Hs55 against HSP47 (2.6 μM) in the turbidity assay of collagen fibril formation came to 55 µM. For the same molecule, the Mean A450 in test [2] was more than 2 A450.
